Assay results: paper PMC9299292, “The nuclear egress complex of Epstein-Barr virus buds membranes through an oligomerization-driven mechanism” (PLoS Pathogens, 2022)

What was measured:
[1] = biological target: EBV NEC215-N31S_(BFLF2)/F267W_(BFLF2)-His8 (Epstein-Barr virus (strain B95-8)) (UniProt P03185)
[2] = biological target: EBV NEC215-N31S_(BFLF2)/L262F_(BFLF2)-His8 (Epstein-Barr virus (strain B95-8)) (UniProt P03185)
[3] = biological target: EBV NEC215-N121Q_(BFRF1)/N31S_(BFLF2)-His8 (Epstein-Barr virus (strain B95-8)) (UniProt P03185)
[4] = biological target: EBV NEC215-Q43A_(BFRF1)/N31S_(BFLF2)-His8 (Epstein-Barr virus (strain B95-8)) (UniProt P03185)
[5] = biological target: the molecule itself; test: crystal structure; EBV NEC195Δ65; hanging drops at 20°C, protein in 20 mM HEPES pH 8.0, 100 mM NaCl, 0.5 mM TCEP over 25% PEG 3350, 0.1 M Tris-HCl pH 8.5, 0.2 M Li2SO4; space group P4(3)2(1)2, five heterodimers in the asymmetric unit; 3.97 Å

Q: How did the in-vitro GUV budding assay (intraluminal vesicles, 1.5 uM NEC, Ni-chelating lipids), against WT EBV NEC215-N31S (BFLF2)-His8 (% of the WT EBV NEC) [1] turn out when “EBV NEC215-N31S_(BFLF2)/F267W_(BFLF2)-His8 (from UniProt P03185 1-215; P0CK47 1-318) (complex)” was run?
A: The in-vitro GUV budding assay (intraluminal vesicles, 1.5 uM NEC, Ni-chelating lipids), against WT EBV NEC215-N31S (BFLF2)-His8 (% of the WT EBV NEC) was less than 25.

Q: How did the in-vitro GUV budding assay (intraluminal vesicles, 1.5 uM NEC, Ni-chelating lipids), against WT EBV NEC215-N31S (BFLF2)-His8 (% of the WT EBV NEC) [2] turn out when “EBV NEC215-N31S_(BFLF2)/L262F_(BFLF2)-His8 (from UniProt P03185 1-215; P0CK47 1-318) (complex)” was run?
A: Its in-vitro GUV budding assay (intraluminal vesicles, 1.5 uM NEC, Ni-chelating lipids), against WT EBV NEC215-N31S (BFLF2)-His8 (% of the WT EBV NEC) is less than 25.

Q: “EBV NEC215-N121Q_(BFRF1)/N31S_(BFLF2)-His8 (from UniProt P03185 1-215; P0CK47 1-318) (complex)” was tested. Which in-vitro GUV budding assay (intraluminal vesicles, 1.5 uM NEC, Ni-chelating lipids), against WT EBV NEC215-N31S (BFLF2)-His8 [3] did it give?
A: The in-vitro GUV budding assay (intraluminal vesicles, 1.5 uM NEC, Ni-chelating lipids), against WT EBV NEC215-N31S (BFLF2)-His8 was 2 fold.

Q: How did the in-vitro GUV budding assay (intraluminal vesicles, 1.5 uM NEC, Ni-chelating lipids), against WT EBV NEC215-N31S (BFLF2)-His8 (% of the WT EBV NEC) [4] turn out when “EBV NEC215-Q43A_(BFRF1)/N31S_(BFLF2)-His8 (from UniProt P03185 1-215; P0CK47 1-318) (complex)” was run?
A: Its in-vitro GUV budding assay (intraluminal vesicles, 1.5 uM NEC, Ni-chelating lipids), against WT EBV NEC215-N31S (BFLF2)-His8 (% of the WT EBV NEC) is less than 25.

B1: EBV NEC195Δ65 (complex)
chain 1: MASPEERLLDELNNVIVSFLCDSGSLEVERCSGAHVFSRGSSQPLCTVKLRHGQIYHLEFVYKFLAFKLKNCNYPSSPVFVISNNGLATTLRCFLHEPSGLRSGQSGPCLGLSTDVDLPKNSIIMLGQDDFIKFKSPLVFPAELDLLKSMVVCRAYITEHRTTMQFLVFQAANAQKASRVMDMISDMSQQLSRSG
chain 2: RSICSRHTRHGVDRSHFSLRDFFRGISANFELGKDFLREMNTPIHVSEAVFLPLSLCTLSPGRCLRLSPFGHSLTLGSHCEICINRSQVHVPQEFSSTQLSFFNNVHKIIPNKTFYVSLLSSSPSAVKAGLSQPSLLYAYLVTGHFCGTICPIFSTNGKGRLIMHLLLQGTSLHIPETCLKLLCENIGPTYELAVDLVGDAFCIKVSPRDTVYEKAVNVDEDAIYEAIKDLECGDELRLQIINYTQLILENKQ
notes: BFRF1 of Epstein-Barr virus strain B95-8, residues 1-195; BFLF2 of Epstein-Barr virus strain B95-8, residues 66-318; Heterodimer of m1 and m2; used for the NEC/NEC dimers seen in the crystal; also called nuclear egress complex; NEC1-5 (copies in the crystal); source: E. coli Rosetta (DE3), co-expressed, purified (Ni-NTA, glutathione Sepharose, S75 size exclusion); not shown: GST, …
Q: Does B1 bind [5]?
A: Result: binds
